# According to patent US20240383964A1, “De Novo Designed alpha(5) beta(1) Integrin selective minibinders” (UNIVERSITY OF WASHINGTON, priority 2023, published 2024):
# B1: 00179_v4.1: highest affinity α5β1 minibinder, sequence SELIIHGRGDFPSSELERLRERFERLGIKVRVDHKVLTLIGISEEEAERLARELRKRGIWVEIRK (protein)
# chain: SELIIHGRGDFPSSELERLRERFERLGIKVRVDHKVLTLIGISEEEAERLARELRKRGIWVEIRK
# Key:
# integrin avb3 = integrin avb3 (Homo sapiens, UniProt P05106+P06756); assay: BLI cross specificity, integrin avb3; format: binding; conditions: 500 nM integrin (FIG. 2B legend: 500 nM or 1000 nM), integrin assay buffer
# Sequence of integrin avb3 (P06756 31-889 limits assumed): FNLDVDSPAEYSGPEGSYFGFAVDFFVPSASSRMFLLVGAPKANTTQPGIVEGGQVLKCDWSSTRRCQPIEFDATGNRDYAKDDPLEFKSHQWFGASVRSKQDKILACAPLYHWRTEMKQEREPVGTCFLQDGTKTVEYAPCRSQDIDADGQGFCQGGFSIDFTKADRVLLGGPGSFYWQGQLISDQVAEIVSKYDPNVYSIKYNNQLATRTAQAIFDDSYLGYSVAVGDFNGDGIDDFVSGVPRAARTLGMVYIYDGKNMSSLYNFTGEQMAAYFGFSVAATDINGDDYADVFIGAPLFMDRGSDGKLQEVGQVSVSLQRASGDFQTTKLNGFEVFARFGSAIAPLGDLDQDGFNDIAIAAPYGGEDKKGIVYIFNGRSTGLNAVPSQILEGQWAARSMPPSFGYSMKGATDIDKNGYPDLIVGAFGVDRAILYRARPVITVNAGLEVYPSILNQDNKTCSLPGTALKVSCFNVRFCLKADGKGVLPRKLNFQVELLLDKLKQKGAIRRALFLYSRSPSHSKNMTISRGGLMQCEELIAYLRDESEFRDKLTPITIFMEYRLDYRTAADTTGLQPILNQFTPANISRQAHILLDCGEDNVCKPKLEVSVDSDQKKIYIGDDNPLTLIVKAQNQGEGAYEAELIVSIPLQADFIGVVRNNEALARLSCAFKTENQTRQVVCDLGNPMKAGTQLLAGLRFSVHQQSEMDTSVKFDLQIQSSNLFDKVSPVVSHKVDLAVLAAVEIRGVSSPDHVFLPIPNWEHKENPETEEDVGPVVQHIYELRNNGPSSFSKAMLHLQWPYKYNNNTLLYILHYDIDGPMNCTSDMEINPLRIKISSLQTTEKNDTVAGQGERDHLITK
# Sequence of integrin avb3 (P06756 891-992 partner limits assumed): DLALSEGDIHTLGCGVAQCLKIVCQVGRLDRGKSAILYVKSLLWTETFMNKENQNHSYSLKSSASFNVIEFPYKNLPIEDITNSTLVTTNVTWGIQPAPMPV
# Sequence of integrin avb3 (P05106 27-718 limits assumed): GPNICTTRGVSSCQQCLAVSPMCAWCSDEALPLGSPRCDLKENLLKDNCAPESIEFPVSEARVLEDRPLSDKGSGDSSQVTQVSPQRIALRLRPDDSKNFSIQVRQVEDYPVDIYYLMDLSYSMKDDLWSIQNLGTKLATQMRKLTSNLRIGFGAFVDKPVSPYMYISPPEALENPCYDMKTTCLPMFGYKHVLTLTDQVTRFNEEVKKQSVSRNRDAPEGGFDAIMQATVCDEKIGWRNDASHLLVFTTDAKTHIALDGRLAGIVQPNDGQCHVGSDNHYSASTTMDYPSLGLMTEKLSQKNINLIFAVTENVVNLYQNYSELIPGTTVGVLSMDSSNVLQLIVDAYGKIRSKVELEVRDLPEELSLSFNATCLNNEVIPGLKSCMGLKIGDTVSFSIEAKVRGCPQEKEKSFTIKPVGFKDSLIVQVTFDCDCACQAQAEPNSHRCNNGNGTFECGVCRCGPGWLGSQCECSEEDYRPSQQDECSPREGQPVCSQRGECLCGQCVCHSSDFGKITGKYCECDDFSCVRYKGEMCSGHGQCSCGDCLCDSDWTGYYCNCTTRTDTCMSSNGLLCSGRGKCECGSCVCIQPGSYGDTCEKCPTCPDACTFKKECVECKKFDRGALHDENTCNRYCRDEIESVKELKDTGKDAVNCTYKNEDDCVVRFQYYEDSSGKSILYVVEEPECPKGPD
# integrin α5β1 = integrin α5β1 (Homo sapiens, UniProt P05556+P08648); assay: Biolayer interferometry (BLI) binding to integrin α5β1; conditions: pH 5 supplemented with 1 mM MgCl2, 1 mM CaCl2
# Sequence of integrin α5β1 (P08648 42-894 limits assumed): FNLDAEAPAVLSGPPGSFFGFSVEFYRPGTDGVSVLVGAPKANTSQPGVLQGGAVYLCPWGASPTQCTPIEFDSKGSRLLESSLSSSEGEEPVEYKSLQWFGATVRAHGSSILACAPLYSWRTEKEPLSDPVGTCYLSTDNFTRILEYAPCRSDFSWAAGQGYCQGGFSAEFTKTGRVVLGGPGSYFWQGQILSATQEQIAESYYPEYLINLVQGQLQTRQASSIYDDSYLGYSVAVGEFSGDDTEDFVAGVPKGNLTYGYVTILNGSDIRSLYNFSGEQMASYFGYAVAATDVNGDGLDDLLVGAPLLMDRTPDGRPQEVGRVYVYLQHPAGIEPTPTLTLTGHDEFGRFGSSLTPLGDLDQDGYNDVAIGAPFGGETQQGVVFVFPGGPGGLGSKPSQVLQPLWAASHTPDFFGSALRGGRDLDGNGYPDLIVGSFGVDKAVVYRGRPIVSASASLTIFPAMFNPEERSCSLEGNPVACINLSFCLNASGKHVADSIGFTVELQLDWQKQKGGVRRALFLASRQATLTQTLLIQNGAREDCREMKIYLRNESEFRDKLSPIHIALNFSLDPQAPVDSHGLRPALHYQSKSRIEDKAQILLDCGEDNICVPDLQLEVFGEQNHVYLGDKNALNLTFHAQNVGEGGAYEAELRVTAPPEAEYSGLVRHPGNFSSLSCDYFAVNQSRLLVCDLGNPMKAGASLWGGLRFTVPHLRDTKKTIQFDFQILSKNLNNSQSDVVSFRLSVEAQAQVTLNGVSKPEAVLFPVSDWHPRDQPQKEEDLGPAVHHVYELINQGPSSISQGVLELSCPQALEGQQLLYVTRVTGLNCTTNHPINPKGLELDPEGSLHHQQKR
# Sequence of integrin α5β1 (P08648 895-995 partner limits assumed): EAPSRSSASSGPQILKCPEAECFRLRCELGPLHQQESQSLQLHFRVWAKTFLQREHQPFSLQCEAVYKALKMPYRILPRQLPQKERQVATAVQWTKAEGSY
# Sequence of integrin α5β1 (P05556 21-728 limits assumed): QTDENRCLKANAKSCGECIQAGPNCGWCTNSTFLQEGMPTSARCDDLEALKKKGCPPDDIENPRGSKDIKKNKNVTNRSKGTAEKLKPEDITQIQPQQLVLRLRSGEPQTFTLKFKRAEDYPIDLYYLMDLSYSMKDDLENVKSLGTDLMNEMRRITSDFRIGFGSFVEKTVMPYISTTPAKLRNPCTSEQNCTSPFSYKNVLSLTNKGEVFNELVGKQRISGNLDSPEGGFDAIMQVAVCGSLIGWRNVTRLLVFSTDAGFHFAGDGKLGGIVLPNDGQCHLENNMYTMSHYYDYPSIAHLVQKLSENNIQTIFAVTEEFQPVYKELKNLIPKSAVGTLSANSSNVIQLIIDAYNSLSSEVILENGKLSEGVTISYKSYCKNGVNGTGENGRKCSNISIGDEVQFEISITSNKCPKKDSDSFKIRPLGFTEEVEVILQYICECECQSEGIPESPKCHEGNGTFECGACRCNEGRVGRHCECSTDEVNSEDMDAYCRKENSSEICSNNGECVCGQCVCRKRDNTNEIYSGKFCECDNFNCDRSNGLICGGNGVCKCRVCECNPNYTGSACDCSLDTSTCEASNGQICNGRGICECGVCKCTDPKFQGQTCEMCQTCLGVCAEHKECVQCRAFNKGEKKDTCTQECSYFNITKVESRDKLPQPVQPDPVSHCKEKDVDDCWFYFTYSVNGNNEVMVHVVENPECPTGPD
# Description: The polypeptides of the disclosure selectively bind to α5β1 integrin with antagonistic activity. The term “antagonistic activity” is used herein to describe the activity of a polypeptide that, upon binding to α5β1 integrin, inactivates the integrin complex or inhibits processes normally initiated by the integrin. In some embodiments, the polypeptide or fusion protein of any embodiment or combination of embodiments herein, binds integrin α5β1 with an affinity of between about 0.025 nm and about 50 μm, or between about 0.05 nm and about 8 μm, or between about 0.05 nm and about 8 μm, or between about 0.05 nm and about 2.5 μm, or between about 0.05 nm and about 700 nm, or between about 0.05 nm and about 0.5 nm. The binding affinity can be measured, for example, using biolayer interferometry (BLI) or yeast display. […] In one such assay to measure the binding affinity to a51integrin, the polypeptides are cloned with an N-terminus avi-tag and biotinylated chemically. Prior to measurements, streptavidin-coated biosensors are first hydrated in assay buffer for 10 minutes. […]
# 15 constructs of identified initial hits were expressed and purified—their binding affinities range from nanomolar to micromolar (data not shown). […] The binding affinity of each variant was calculated as described in Cao et al, 2022. […]
molecule,measurement,setting,value
B1,binding to integrin avb3,integrin avb3,No detectable binding
same,binding to α5β1 at pH 5,integrin α5β1,still can bind
